# Measured values taken from patent US20230045262A1 (Hoffmann-La Roche, published 2023).
# Like-named read-outs stand apart in the source and are kept apart here.
# Key:
# [1] = target: T1, human 4-1BB on cells (activated human T cells; HeLa-hu4-1BB-NFκB-luc clone 26; Jurkat-hu4-1BB-NFκB-luc2) (human, UniProt Q07011 24-255); experiment: cell-based or functional assay
# [2] = target: T1, human 4-1BB on cells (activated human T …); experiment: flow cytometry on Jurkat-hu4-1BB-NFκB-luc2 cells
# [3] = target: T1, human 4-1BB on cells (activated human T …); experiment: cell-based or functional assay; remark: listed apart in the source
# [4] = target: T1, human 4-1BB on cells (activated human T …); experiment: cell-based or functional assay; remark: listed apart in the source
# [5] = target: T2, human FAP on cells (WM-266-4; NIH/3T3-huFAP clone 19) (human, UniProt Q12884 1-760); experiment: flow cytometry on WM-266-4 cells
# T2 construct: transfected in NIH/3T3-huFAP clone 19
# [6] = target: T2, human FAP on cells (WM-266-4; …); experiment: flow cytometry on NIH/3T3-huFAP clone 19 cells
# [7] = target: T1, human 4-1BB on cells (activated human T …); experiment: flow cytometry on activated human CD4+ T cells, PE anti-human Fc secondary
# [8] = target: T1, human 4-1BB on cells (activated human T …); experiment: flow cytometry on activated human CD8+ T cells, PE anti-human Fc secondary
# [9] = target: T3, hu4-1BB-SNAP fusion on Hek293 EBNA cells (human, UniProt Q07011 24-255, labeled with the FRET donor Terbium); experiment: TagLite FRET competition on hu4-1BB-SNAP cells; competitor 0.6 nM d2-labelled 20H4.9 IgG; 4 h
# T3 construct: also called hu 4-1BB (TagLite); not shown: SNAP tag
# [10] = target: T3, hu4-1BB-SNAP fusion on Hek293 EBNA cells; experiment: as above; remark: listed apart in the source
Binder,EC50 of Jurkat-hu4-1BB-NFκB-luc2 reporter cell line activation curves in the presence of CEA-expressing MKN45 tumor cells [1] [nM],EC50 [2] [nM],"EC50 of activation of the NFκB signaling pathway (luciferase, HeLa-hu4-1BB-NFκB-luc), no FAP+ cells [3] [nM]","EC50 of activation of the NFκB signaling pathway (luciferase, HeLa-hu4-1BB-NFκB-luc), with 3T3-huFAP cells [3] [nM]","EC50 of activation of the NFκB signaling pathway (luciferase, HeLa-hu4-1BB-NFκB-luc), with WM-266-4 cells [3] [nM]","EC50 of human PBMC activation curves, % CD25+ CD4 (with NIH/3T3-huFAP cells and anti-CD3) [4] [pM]","EC50 of human PBMC activation curves, % CD25+ CD8 (with NIH/3T3-huFAP cells and anti-CD3) [4] [nM]","EC50 of human PBMC activation curves, % proliferating CD4 (with NIH/3T3-huFAP cells and anti-CD3) [4] [pM]","EC50 of human PBMC activation curves, % proliferating CD8 (with NIH/3T3-huFAP cells and anti-CD3) [4] [pM]",EC50 [5] [nM],EC50 [6] [nM],EC50 [7] [nM],EC50 [8] [nM],EC50 [9] [nM],EC50 interval [9] [nM],EC50 [10] [nM],EC50 interval [10] [nM]
"2+1 4-1BB (20H4.9)/CEA(A5B7P) human IgG1 PGLALA, CEA with CHCL crossfab (bispecific antibody, also called 4-1BB (20H4.9)×CEA (A5B7P) 2+1 CHCL crossfab; knob-CHCL crossfab) heavy 1: not shown heavy 2: QVQLQQWGAGLLKPSETLSLTCAVYGGSFSGYYWSWIRQSPEKGLEWIGEINHGGYVTYNPSLESRVTISVDTSKNQFSLKLSSVTAADTAVYYCARDYGPGNYDWYFDLWGRGTLVTVSSASTKGPSVFPLAPSSKSTSGGTAALGCLVEDYFPEPVTVSWNSGALTSGVHTFPAVLQSSGLYSLSSVVTVPSSSLGTQTYICNVNHKPSNTKVDEKVEPKSCDKTHTCPPCPAPEAAGGPSVFLFPPKPKDTLMISRTPEVTCVVVDVSHEDPEVKFNWYVDGVEVHNAKTKPREEQYNSTYRVVSVLTVLHQDWLNGKEYKCKVSNKALGAPIEKTISKAKGQPREPQVCTLPPSRDELTKNQVSLSCAVKGFYPSDIAVEWESNGQPENNYKTTPPVLDSDGSFFLVSKLTVDKSRWQQGNVFSCSVMHEALHNHYTQKSLSLSPGK light 1: not shown light 2: QTVLSQSPAILSASPGEKVTMTCRASSSVTYIHWYQQKPGSSPKSWIYATSNLASGVPARFSGSGSGTSYSLTISRVEAEDAATYYCQHWSSKPPTFGGGTKLEIKSSASTKGPSVFPLAPSSKSTSGGTAALGCLVKDYFPEPVTVSWNSGALTSGVHTFPAVLQSSGLYSLSSVVTVPSSSLGTQTYICNVNHKPSNTKVDKKVEPKSC",0.09,0.06,–,–,–,–,–,–,–,–,–,–,–,–,–,–,–
"2+1 4-1BB (20H4.9)/CEA(T84.66-LCHA) human IgG1 PGLALA, (G4S)4 hole-VH (bispecific antibody, also called 4-1BB (20H4.9)×CEA (T84.66-LCHA) 2+1) heavy 1: QVQLQQWGAGLLKPSETLSLTCAVYGGSFSGYYWSWIRQSPEKGLEWIGEINHGGYVTYNPSLESRVTISVDTSKNQFSLKLSSVTAADTAVYYCARDYGPGNYDWYFDLWGRGTLVTVSSASTKGPSVFPLAPSSKSTSGGTAALGCLVKDYFPEPVTVSWNSGALTSGVHTFPAVLQSSGLYSLSSVVTVPSSSLGTQTYICNVNHKPSNTKVDKKVEPKSCDKTHTCPPCPAPEAAGGPSVFLFPPKPKDTLMISRTPEVTCVVVDVSHEDPEVKFNWYVDGVEVHNAKTKPREEQYNSTYRVVSVLTVLHQDWLNGKEYKCKVSNKALGAPIEKTISKAKGQPREPQVCTLPPSRDELTKNQVSLSCAVKGFYPSDIAVEWESNGQPENNYKTTPPVLDSDGSFFLVSKLTVDKSRWQQGNVFSCSVMHEALHNHYTQKSLSLSPGGGGGSGGGGSGGGGSGGGGSQVQLVQSGAEVKKPGSSVKVSCKASGFNIKDTYMHWVRQAPGQGLEWMGRIDPANGNSKYVPKFQGRVTITADTSTSTAYMELSSLRSEDTAVYYCAPFGYYVSDYAMAYWGQGTLVTVSS heavy 2: not shown light: not shown",0.19,0.07,–,–,–,–,–,–,–,–,–,–,–,–,–,–,–
"2+1 4-1BB (20H4.9)/CEA(A5B7P) human IgG1 PGLALA, (G4S)4, hole-VH (bispecific antibody, also called 4-1BB (20H4.9)×CEA (A5B7P) 2+1; C-terminal VH/VL fusion of the A5B7P clone) heavy 1: QVQLQQWGAGLLKPSETLSLTCAVYGGSFSGYYWSWIRQSPEKGLEWIGEINHGGYVTYNPSLESRVTISVDTSKNQFSLKLSSVTAADTAVYYCARDYGPGNYDWYFDLWGRGTLVTVSSASTKGPSVFPLAPSSKSTSGGTAALGCLVKDYFPEPVTVSWNSGALTSGVHTFPAVLQSSGLYSLSSVVTVPSSSLGTQTYICNVNHKPSNTKVDKKVEPKSCDKTHTCPPCPAPEAAGGPSVFLFPPKPKDTLMISRTPEVTCVVVDVSHEDPEVKFNWYVDGVEVHNAKTKPREEQYNSTYRVVSVLTVLHQDWLNGKEYKCKVSNKALGAPIEKTISKAKGQPREPQVCTLPPSRDELTKNQVSLSCAVKGFYPSDIAVEWESNGQPENNYKTTPPVLDSDGSFFLVSKLTVDKSRWQQGNVFSCSVMHEALHNHYTQKSLSLSPGGGGGSGGGGSGGGGSGGGGSEVKLVESGGGLVQPGGSLRLSCATSGFTFTDYYMNWVRQPPGKALEWLGFIGNKANGYTTEYSASVKGRFTISRDKSQSILYLQMNTLRAEDSATYYCTRDRGLRFYFDYWGQGTTLTVSS heavy 2: not shown light: not shown",0.16,0.06,–,–,–,–,–,–,–,–,–,–,–,–,–,–,–

# The next lines start with the values.
EC50 of Jurkat-hu4-1BB-NFκB-luc2 reporter cell line activation curves in the presence of CEA-expressing MKN45 tumor cells [1] [nM],EC50 [2] [nM],"EC50 of activation of the NFκB signaling pathway (luciferase, HeLa-hu4-1BB-NFκB-luc), no FAP+ cells [3] [nM]","EC50 of activation of the NFκB signaling pathway (luciferase, HeLa-hu4-1BB-NFκB-luc), with 3T3-huFAP cells [3] [nM]","EC50 of activation of the NFκB signaling pathway (luciferase, HeLa-hu4-1BB-NFκB-luc), with WM-266-4 cells [3] [nM]","EC50 of human PBMC activation curves, % CD25+ CD4 (with NIH/3T3-huFAP cells and anti-CD3) [4] [pM]","EC50 of human PBMC activation curves, % CD25+ CD8 (with NIH/3T3-huFAP cells and anti-CD3) [4] [nM]","EC50 of human PBMC activation curves, % proliferating CD4 (with NIH/3T3-huFAP cells and anti-CD3) [4] [pM]","EC50 of human PBMC activation curves, % proliferating CD8 (with NIH/3T3-huFAP cells and anti-CD3) [4] [pM]",EC50 [5] [nM],EC50 [6] [nM],EC50 [7] [nM],EC50 [8] [nM],EC50 [9] [nM],EC50 interval [9] [nM],EC50 [10] [nM],EC50 interval [10] [nM],Binder
–,–,0.13,0.04,0.05,6,0.009,3,2,1.6,2,0.1,0.1,0.5,0.3 to 0.7,–,–,"4-1BB (20H4.9)/FAP (4B9) P329GLALA IgG1 4+1 (hole-VH) (bispecific antibody, also called 4-1BB (20H4.9)×FAP (4B9) 4+1; 20H4.9/4B9 4+1) heavy 1: QVQLQQWGAGLLKPSETLSLTCAVYGGSFSGYYWSWIRQSPEKGLEWIGEINHGGYVTYNPSLESRVTISVDTSKNQFSLKLSSVTAADTAVYYCARDYGPGNYDWYFDLWGRGTLVTVSSASTKGPSVFPLAPSSKSTSGGTAALGCLVKDYFPEPVTVSWNSGALTSGVHTFPAVLQSSGLYSLSSVVTVPSSSLGTQTYICNVNHKPSNTKVDKKVEPKSCDGGGGSGGGGSQVQLQQWGAGLLKPSETLSLTCAVYGGSFSGYYWSWIRQSPEKGLEWIGEINHGGYVTYNPSLESRVTISVDTSKNQFSLKLSSVTAADTAVYYCARDYGPGNYDWYFDLWGRGTLVTVSSASTKGPSVFPLAPSSKSTSGGTAALGCLVKDYFPEPVTVSWNSGALTSGVHTFPAVLQSSGLYSLSSVVTVPSSSLGTQTYICNVNHKPSNTKVDKKVEPKSCDKTHTCPPCPAPEAAGGPSVFLFPPKPKDTLMISRTPEVTCVVVDVSHEDPEVKFNWYVDGVEVHNAKTKPREEQYNSTYRVVSVLTVLHQDWLNGKEYKCKVSNKALGAPIEKTISKAKGQPREPQVCTLPPSRDELTKNQVSLSCAVKGFYPSDIAVEWESNGQPENNYKTTPPVLDSDGSFFLVSKLTVDKSRWQQGNVFSCSVMHEALHNHYTQKSLSLSPGGGGGSGGGGSGGGGSGGGGSEVQLLESGGGLVQPGGSLRLSCAASGFTFSSYAMSWVRQAPGKGLEWVSAIIGSGASTYYADSVKGRFTISRDNSKNTLYLQMNSLRAEDTAVYYCAKGWFGGFNYWGQGTLVTVSS heavy 2: not shown light: not shown"
–,–,0.73,0.07,0.08,5,0.02,4,1,0.7,1.7,0.1,0.1,–,–,1.6,1.2 to 2.3,"4-1BB (20H4.9)/FAP (4B9) P329GLALA IgG1 2+1 (hole-VH) (bispecific antibody, also called 4-1BB (20H4.9)×FAP (4B9) 2+1; 20H4.9/4B9 2+1) heavy 1: QVQLQQWGAGLLKPSETLSLTCAVYGGSFSGYYWSWIRQSPEKGLEWIGEINHGGYVTYNPSLESRVTISVDTSKNQFSLKLSSVTAADTAVYYCARDYGPGNYDWYFDLWGRGTLVTVSSASTKGPSVFPLAPSSKSTSGGTAALGCLVKDYFPEPVTVSWNSGALTSGVHTFPAVLQSSGLYSLSSVVTVPSSSLGTQTYICNVNHKPSNTKVDKKVEPKSCDKTHTCPPCPAPEAAGGPSVFLFPPKPKDTLMISRTPEVTCVVVDVSHEDPEVKFNWYVDGVEVHNAKTKPREEQYNSTYRVVSVLTVLHQDWLNGKEYKCKVSNKALGAPIEKTISKAKGQPREPQVCTLPPSRDELTKNQVSLSCAVKGFYPSDIAVEWESNGQPENNYKTTPPVLDSDGSFFLVSKLTVDKSRWQQGNVFSCSVMHEALHNHYTQKSLSLSPGGGGGSGGGGSGGGGSGGGGSEVQLLESGGGLVQPGGSLRLSCAASGFTFSSYAMSWVRQAPGKGLEWVSAIIGSGASTYYADSVKGRFTISRDNSKNTLYLQMNSLRAEDTAVYYCAKGWFGGFNYWGQGTLVTVSS heavy 2: not shown light: not shown"
